Article PMC10584687

Columns and labels:
[1] = target: GluA2–γ5 fusion construct (N terminus of γ5 covalently linked to the C terminus of GluA2) (rat | mouse) (UniProt Q8VHW4)
[2] = target: GluA2 (modified calcium-permeable rat GluA2(Q) flip subunit, GluA2*) (rat)
[3] = target: GluA2–γ5 fusion construct (N terminus of γ5 covalently linked to the C terminus of GluA2) (rat | mouse) (UniProt Q8VHW4); experiment: cryo-EM structure; complex co-purified from HEK293S GnTI− cells transduced with GluA2–γ5 (no antagonists in the medium) by the streptavidin affinity tag and SEC in 150 mM NaCl, 20 mM Tris pH 8.0, 0.005% CHS, 0.05% digitonin, 1 mM βME; grids with 100 µM ZK, no ligand (apo), 100 µM ZK + 100 µM PMP, or 10 mM Glu
[4] = target: GluA2–γ5 fusion construct (N terminus of γ5 covalently linked to the C terminus of GluA2) (rat | mouse) (UniProt Q8VHW4); remark: listed apart in the source
[5] = target: GluA2 (modified calcium-permeable rat GluA2(Q) flip subunit, GluA2*) (rat); remark: listed apart in the source
[6] = target: GluA2–γ5 fusion construct (N terminus of γ5 covalently linked to the C terminus of GluA2) (rat | mouse) (UniProt Q8VHW4); remark: listed apart in the source
[7] = target: GluA2 (modified calcium-permeable rat GluA2(Q) flip subunit, GluA2*) (rat); remark: listed apart in the source
[8] = target: GluA2 (modified calcium-permeable rat GluA2(Q) flip subunit, GluA2*) (rat); experiment: cryo-EM structure; complex co-purified from HEK293S GnTI− cells transduced with GluA2–γ5 (no antagonists in the medium) by the streptavidin affinity tag and SEC in 150 mM NaCl, 20 mM Tris pH 8.0, 0.005% CHS, 0.05% digitonin, 1 mM βME; grids with 100 µM ZK, no ligand (apo), 100 µM ZK + 100 µM PMP, or 10 mM Glu

Row | stoichiometry N (CNIH2 subunits per GluA2–γ5 tetramer) [3] | deactivation time constant τDeact, whole-cell patch clamp, HEK293 cells cotransfected with GluA2–γ5 and wild-type human CNIH2, 2 ms 3 mM Glu, −60 mV [4] [ms] | deactivation time constant τDeact, whole-cell patch clamp, HEK293 cells cotransfected with GluA2 and wild-type human CNIH2, 2 ms 3 mM Glu, −60 mV [5] [ms] | stoichiometry N (γ5 subunits per AMPAR tetramer) [8] | Binder | fraction of nondesensitized channels ISS/IMax, whole-cell patch clamp, HEK293 cells cotransfected with GluA2–γ5 and wild-type human CNIH2 [1] | fraction of nondesensitized channels ISS/IMax, whole-cell patch clamp, HEK293 cells cotransfected with GluA2 and wild-type human CNIH2 [2] | desensitization time constant τDes, whole-cell patch clamp, HEK293 cells cotransfected with GluA2–γ5 and wild-type human CNIH2, 500 ms 3 mM Glu, −60 mV [4] [ms] | desensitization time constant τDes, whole-cell patch clamp, HEK293 cells cotransfected with GluA2 and wild-type human CNIH2, 500 ms 3 mM Glu, −60 mV [5] [ms] | time constant of recovery from desensitization τRecDes, two-pulse protocol, HEK293 cells cotransfected with GluA2–γ5 and wild-type human CNIH2 [6] [ms] | time constant of recovery from desensitization τRecDes, two-pulse protocol, HEK293 cells cotransfected with GluA2 and wild-type human CNIH2 [7] [ms]
1 | 2 | 4.21 | 10.8 |  | cornichon-2 (CNIH2), endogenous human (natural protein) MAFTFAAFCYMLTLVLCASLIFFVIWHIIAFDELRTDFKNPIDQGNPARARERLKNIERICCLLRKLVVPEYSIHGLFCLMFLCAAEWVTLGLNIPLLFYHLWRYFHRPADGSEVMYDAVSIMNADILNYCQKESWCKLAFYLLSFFYYLYSMVYTLVSF | 0.06 | 0.211 | 14.8 | 28 | 36.8 | 21.7
2 |  |  |  | 2 | TARP γ5 (C-terminally truncated mouse subunit, Cacng5, residues S2-E207) (domain or fragment) SACGRKALTLLSSVFAVCGLGLLGIAVSTDYWLYLEEGIILPQNQSTEVKMSLHSGLWRVCFLAGEERGRCFTIEYVMPMNSQMTSESTVNVLKMIRSATPFPLVSLFFMFIGFILSNIGHIRPHRTILAFVSGIFFILSGLSLVVGLVLYISSINDEMLNRTKDAETYFNYKYGWSFAFAAISFLLTESAGVMSVYLFMKRYTAE |  |  |  |  |  | 
